Experimental data reported in patent US20250382363A1 (NUMAB THERAPEUTICS, published 2025).
Residue numbers refer to the chain shown, from its start. Names and notes keep the numbering of the source.

B1: PRO3340 (scFv 37-20-B03-sc09.1_(T101S, T146K)) (scFv)
scFv: DIQMTQSPASLSASVGDRVTITCQASQSIGTYLAWYQQKPGKPPKLLIYRAFILASGVPSRFSGSGSGTDFTLTISSLQPEDFATYYCQSNFYSDSTTIGPNAFGTGTKVTVLGGGGGSGGGGSGGGGSGGGGSEVQLVESGGGLVQPGGSLRLSCAASGFSFNSDYWIYWVRQAPGKGLEWIASIYGGSSGNTQYASWAQGRFTISRDNSKNTVYLQMNSLRAEDSAVYFCARGYVDYGGATDLWGQGTLVKVSS
notes: PRO2230 variant; VH substitutions, AHo numbering; also called PRO2230 T101S-T146K
B2: PRO3342 (scFv 37-20-B03-sc09.1_(T101K, T146D)) (scFv)
scFv: B1 scFv with S227K, K253D
notes: PRO2230 variant; VH substitutions, AHo numbering; also called PRO2230 T101K-T146D
B3: PRO3343 (scFv 37-20-B03-sc09.1_(T101R, T146E)) (scFv)
scFv: B1 scFv with S227R, K253E
notes: PRO2230 variant; VH substitutions, AHo numbering; also called PRO2230 T101R-T146E
B4: PRO3341 (scFv 37-20-B03-sc09.1_(T101S, T146S)) (scFv)
scFv: B1 scFv with K253S
notes: PRO2230 variant; VH substitutions, AHo numbering; also called PRO2230 T101S-T146S
B5: PRO1922 (scFv 54-21-H03-sc01) (scFv)
scFv: DIQMTQSPSSLSASVGDRVTITCQASESIYSSLAWYQQKPGKAPKLLIYLASTLASGVPSRFSGSGSGTDFTLTISSLQPEDFATYYCQSTDYTTSTHRNSFGTGTKVTVLGGGGGSGGGGSGGGGSGGGGSEVQLVESGGGLVQPGGSLRLSCAASGFSFSTTYYMCWVRQAPGKGLEWIGCTNTASSVRTYYATWAKGRFTISRDNSKNTVYLQMNSLRAEDTAVYYCARDMGFADYALNLWGQGTLVTVSS
notes: also called PRO1922 wt; a-MSLN wt
B6: PRO2943 (scFv 54-21-H03-sc01_(T146E)) (scFv)
scFv: B5 scFv with T251E
notes: PRO1922 variant; VH substitution, AHo numbering; also called PRO1922 T146E
B7: PRO2944 (scFv 54-21-H03-sc01_(T146Q)) (scFv)
scFv: B5 scFv with T251Q
notes: PRO1922 variant; VH substitution, AHo numbering; also called PRO1922 T146Q
B8: PRO2942 (scFv 54-21-H03-sc01_(T146R)) (scFv)
scFv: B5 scFv with T251R
notes: PRO1922 variant; VH substitution, AHo numbering; also called PRO1922 T146R
B9: PRO2932 (scFv 54-21-H03-sc01_(L144A, S148N)) (scFv)
scFv: B5 scFv with L249A, S253N
notes: PRO1922 variant; VH substitutions, AHo numbering; also called PRO1922 L144A-S148N
B10: PRO2945 (scFv 54-21-H03-sc01_(T101R)) (scFv)
scFv: B5 scFv with T225R
notes: PRO1922 variant; VH substitution, AHo numbering; also called PRO1922 T101R
B11: PRO2941 (scFv 54-21-H03-sc01_(T146K)) (scFv)
scFv: B5 scFv with T251K
notes: PRO1922 variant; VH substitution, AHo numbering; also called PRO1922 T146K
B12: PRO3320 (scFv 54-21-H03-sc01_(L12A, T101S, L144K, T146Q)) (scFv)
scFv: B5 scFv with L143A, T225S, L249K, T251Q
notes: PRO1922 variant; VH substitutions, AHo numbering; also called PRO1922 L12A-T101S-L144K-T146Q
B13: PRO3322 (scFv 54-21-H03-sc01_(L12R, T101R, L144A, T146Q)) (scFv)
scFv: B5 scFv with L143R, T225R, L249A, T251Q
notes: PRO1922 variant; VH substitutions, AHo numbering; also called PRO1922 L12R-T101R-L144A-T146Q
B14: PRO2993 (scFv 54-21-H03-sc01_(P15A)) (scFv)
scFv: B5 scFv with P146A
notes: PRO1922 variant; VH substitution, AHo numbering; also called PRO1922 P15A
B15: PRO2946 (scFv 54-21-H03-sc01_(T101S)) (scFv)
scFv: B5 scFv with T225S
notes: PRO1922 variant; VH substitution, AHo numbering; also called PRO1922 T101S
B16: PRO2991 (scFv 54-21-H03-sc01_(T101A)) (scFv)
scFv: B5 scFv with T225A
notes: PRO1922 variant; VH substitution, AHo numbering; also called PRO1922 T101A
B17: PRO2918 (scFv 54-21-H03-sc01_(L12R, V103T, L144Q)) (scFv)
scFv: B5 scFv with L143R, V227T, L249Q
notes: VH substitutions, AHo numbering; also called PRO1922-L12R-V103T-L144Q
B18: PRO2994 (scFv 54-21-H03-sc01_(P48A)) (scFv)
scFv: B5 scFv with P174A
notes: PRO1922 variant; VH substitution, AHo numbering; also called PRO1922 P48A
B19: PRO2992 (scFv 54-21-H03-sc01_(T146A)) (scFv)
scFv: B5 scFv with T251A
notes: PRO1922 variant; VH substitution, AHo numbering; also called PRO1922 T146A
B20: PRO2938 (scFv 54-21-H03-sc01_(L12A, T101S, L144A, T146Q)) (scFv)
scFv: B5 scFv with L143A, T225S, L249A, T251Q
notes: PRO1922 variant; VH substitutions, AHo numbering; also called PRO1922 L12A-T101S-L144A-T146Q
B21: PRO2937 (scFv 54-21-H03-sc01_(T101S, L144A, T146Q)) (scFv)
scFv: B5 scFv with T225S, L249A, T251Q
notes: PRO1922 variant; VH substitutions, AHo numbering; also called PRO1922 T101S-L144A-T146Q
B22: PRO3319 (scFv 54-21-H03-sc01_(L12A, T101S, L144A, T146R)) (scFv)
scFv: B5 scFv with L143A, T225S, L249A, T251R
notes: PRO1922 variant; VH substitutions, AHo numbering; also called PRO1922 L12A-T101S-L144A-T146R
B23: PRO2930 (scFv 54-21-H03-sc01_(L144K, T146E, S148K)) (scFv)
scFv: B5 scFv with L249K, T251E, S253K
notes: PRO1922 variant; VH substitutions, AHo numbering; also called PRO1922 L144K-T146E-S148K
B24: PRO3321 (scFv 54-21-H03-sc01_(L12R, T101S, L144A, T146Q)) (scFv)
scFv: B5 scFv with L143R, T225S, L249A, T251Q
notes: PRO1922 variant; VH substitutions, AHo numbering; also called PRO1922 L12R-T101S-L144A-T146Q
B25: PRO2931 (scFv 54-21-H03-sc01_(L144K, S148L)) (scFv)
scFv: B5 scFv with L249K, S253L
notes: PRO1922 variant; VH substitutions, AHo numbering; also called PRO1922 L144K-S148L
B26: PRO2936 (scFv 54-21-H03-sc01_(T101S, T146Q)) (scFv)
scFv: B5 scFv with T225S, T251Q
notes: PRO1922 variant; VH substitutions, AHo numbering; also called PRO1922 T101S-T146Q
B27: PRO3318 (scFv 54-21-H03-sc01_(L12A, T101R, L144A, T146Q)) (scFv)
scFv: B5 scFv with L143A, T225R, L249A, T251Q
notes: PRO1922 variant; VH substitutions, AHo numbering; also called PRO1922 L12A-T101R-L144A-T146Q
B28: PRO2990 (scFv 54-21-H03-sc01_(L12S, V103T, L144T)) (scFv)
scFv: B5 scFv with L143S, V227T, L249T
notes: VH substitutions, AHo numbering; also called PRO1922-L12S-V103T-L144T
B29: PRO3323 (scFv 54-21-H03-sc01_(L12A, T101Q, L144A, T146Q)) (scFv)
scFv: B5 scFv with L143A, T225Q, L249A, T251Q
notes: PRO1922 variant; VH substitutions, AHo numbering; also called PRO1922 L12A-T101Q-L144A-T146Q

Biological target: T1, human a-PD-L1 Fc (Sino Biological, 10084-H02H, LC11NO2402) (human, UniProt Q9NZQ7 19-239)
T1 construct: Bought Fc fusion immobilised on the SPR chip; Printed as 'a-PD-L1 Fc' but used as the antigen (ligand) for the anti-PD-L1 scFvs; also called Human PD-L1; not shown: Fc part
T1 sequence (Q9NZQ7 19-239 limits assumed): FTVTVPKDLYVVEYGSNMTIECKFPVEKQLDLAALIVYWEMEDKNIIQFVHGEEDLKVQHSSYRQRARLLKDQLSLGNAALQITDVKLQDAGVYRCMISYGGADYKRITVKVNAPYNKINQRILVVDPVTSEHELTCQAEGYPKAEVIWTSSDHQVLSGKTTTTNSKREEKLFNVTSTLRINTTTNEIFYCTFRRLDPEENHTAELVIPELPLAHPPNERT
Assay: SPR, PD-L1 Fc immobilised, scFv analyte, 1:1 fit
Description: (§1) The mutation variants were then injected at concentrations of 10 nM, 2 nM and 0.4 nM over the ligand-immobilized and reference spots. The wild type variants were used as a control, while an empty spot was used as reference.
(§2) After each cycle with analyte, the surface was regenerated with a 3M MgCl₂ solution, thereby allowing the next analyte cycle to have only free ligand available. Binding affinity KD was globally calculated by the Bruker SPR software based on the binding association (kₒₙ) and dissociation (Koff) rate, by fitting a 1:1 Langmuir model to the curves obtained by the cycles with the three different concentrations of the analyte.

Binder | Kd [nM] | n-fold to wt [fold]
B1 | 0.056 | 1.1
B2 | 0.038 | 0.8
B3 | 0.029 | 0.6
B4 | 0.051 | 1

Biological target: T2, human a-Mesothelin (Acro Biosystems; MSN_H5223) (human, UniProt Q13421 296-580, limits assumed)
T2 construct: Bought protein immobilised on the SPR chip; Printed as 'a-Mesothelin' but used as the antigen for the anti-MSLN scFvs; also called Human MSLN; MSLN
T2 sequence (Q13421 other isoform, or with tags, fused parts or gaps limits assumed): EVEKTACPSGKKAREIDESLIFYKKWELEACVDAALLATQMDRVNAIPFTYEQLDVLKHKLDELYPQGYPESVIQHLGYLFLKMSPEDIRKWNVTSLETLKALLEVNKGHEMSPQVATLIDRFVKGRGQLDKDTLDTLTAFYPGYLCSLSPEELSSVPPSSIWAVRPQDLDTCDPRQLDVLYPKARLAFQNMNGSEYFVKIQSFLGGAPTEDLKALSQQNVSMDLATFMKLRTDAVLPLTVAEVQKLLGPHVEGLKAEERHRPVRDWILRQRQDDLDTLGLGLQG
Assay: SPR, mesothelin immobilised, scFv analyte, 1:1 fit
Description: as §1, §2

Binder | Kd [nM] | n-fold to wt [fold]
B5 | 1.8 | 1
B6 | 3.3 | 1.8
B7 | 1.8 | 1
B8 | 1.3 | 0.7
B9 | 2.1 | 1.2
B10 | 3 | 1.7
B11 | 1.9 | 1.1
B12 | 1.6 | 0.9
B13 | 2.1 | 1.2
B14 | 0.82 | 0.5
B15 | 3.2 | 1.8
B16 | 2.9 | 1.6
B17 | 2.4 | 1.3
B18 | 1.5 | 0.8
B19 | 1.7 | 0.9
B20 | 1.6 | 0.9
B21 | 1.9 | 1.1
B22 | 2.5 | 1.4
B23 | 1.3 | 0.7
B24 | 1.7 | 0.9
B25 | 1.4 | 0.8
B26 | 0.66 | 0.4
B27 | 2.3 | 1.3
B28 | 1.5 | 0.8
B29 | 1.7 | 0.9

Biological target: pre-existing anti-drug antibodies (ADA) present in human sera
Assay: pre-existing ADA ELISA, scFv coated, human sera unspiked vs spiked

Binder | Mean No of serum samples >30% inhibition (30% CCP) with SCP (serum samples) | No of serum samples >30% inhibition (30% CCP) without SCP (serum samples)
B1 | 0 | 2
B2 | 0 | 1
B3 | 0 | 0
B4 | 0 | 4
B5 | 8 | 16
B6 | 2 | 4
B7 | 3 | 3
B8 | 1 | 6
B9 | 1 | 5
B10 | 0 | 0
B11 | 0 | 0
B12 | 0 | 0
B13 | 0 | 0
B14 | 2 | 3
B15 | 6 | 9
B16 | 0 | 0
B17 | 3 | 5
B18 | 2 | 6
B19 | 3 | 4
B20 | 0 | 0
B21 | 0 | 5
B22 | 0 | 0
B23 | 0 | 0
B24 | 0 | 0
B25 | 1 | 6
B26 | 1 | 4
B27 | 0 | 0
B28 | 4 | 5
B29 | 0 | 0
